In publication PMC3499415, “The Human Cytomegalovirus DNA Polymerase Processivity Factor UL44 Is Modified by SUMO in a DNA-Dependent Manner” (PLoS ONE, 2012):

B1: HCMV UL44 (DNA polymerase processivity factor), full-length, yeast two-hybrid fusion, P16790 1-433 (natural protein)
chain: MDRKTRLSEPPTLALRLKPYKTAIQQLRSVIRALKENTTVTFLPTPSLILQTVRSHCVSKITFNSSCLYITDKSFQPKTINNSTPLLGNFMYLTSSKDLTKFYVQDISDLSAKISMCAPDFNMEFSSACVHGQDIVRESENSAVHVDLDFGVVADLLKWIGPHTRVKRNVKKAPCPTGTVQILVHAGPPAIKFILTNGSELEFTANNRVSFHGVKNMRINVQLKNFYQTLLNCAVTKLPCTLRIVTEHDTLLYVASRNGLFAVENFLTEEPFQRGDPFDKNYVGNSGKSRGGGGGGGSLSSLANAGGLHDDGPGLDNDLMNEPMGLGGLGGGGGGGGKKHDRGGGGGSGTRKMSSGGGGGDHDHGLSSKEKYEQHKITSYLTSKGGSGGGGGGGGGGLDRNSGNYFNDAKEESDSEDSVTFEFVPNTKKQKCG
B2: HCMV UL44 (DNA polymerase processivity factor), full-length, yeast two-hybrid fusion (natural protein)
chain: B1 chain
notes: also called LexA-UL44; GAD-UL44; source: yeast two-hybrid fusion (S. cerevisiae L40)
B3: HCMV UL54 (DNA polymerase catalytic subunit), GAD fusion (enzyme)
chain: MFFNPYLSGGVTGGAVAGGRRQRSQPGSAQGSGKRPPQKQFLQIVPRGVMFDGQTGLIKHKTGRLPLMFYREIKHLLSHDMVWPCPWRETLVGRVVGPIRFHTYDQTDAVLFFDSPENVSPRYRQHLVPSGNVLRFFGATEHGYSICVNVFGQRSYFYCEYSDTDRLREVIASVGELVPEPRTPYAVSVTPATKTSIYGYGTRPVPDLQCVSISNWTMARKIGEYLLEQGFPVYEVRVDPLTRLVIDRRITTFGWCSVNRYDWRQQGRASTCDIEVDCDVSDLVAVPDDSSWPRYRCLSFDIECMSGEGGFPCAEKSDDIVIQISCVCYETGGNTAVDQGIPNGNDGRGCTSEGVIFGHSGLHLFTIGTCGQVGPDVDVYEFPSEYELLLGFMLFFQRYAPAFVTGYNINSFDLKYILTRLEYLYKVDSQRFCKLPTAQGGRFFLHSPAVGFKRQYAAAFPSASHNNPASTAATKVYIAGSVVIDMYPVCMAKTNSPNYKLNTMAELYLRQRKDDLSYKDIPRCFVANAEGRAQVGRYCLQDAVLVRDLFNTINFHYEAGAIARLAKIPLRRVIFDGQQIRIYTSLLDECACRDFILPNHYSKGTTVPETNSVAVSPNAAIISTAAVPGDAGSVAAMFQMSPPLQSAPSSQDGVSPGSGSNSSSSVGVFSVGSGSSGGVGVSNDNHGAGGTAAVSYQGATVFEPEVGYYNDPVAVFDFASLYPSIIMAHNLCYSTLLVPGGEYPVDPADVYSVTLENGVTHRFVRASVRVSVLSELLNKWVSQRRAVRECMRECQDPVRRMLLDKEQMALKVTCNAFYGFTGVVNGMMPCLPIAASITRIGRDMLERTARFIKDNFSEPCFLHNFFNQEDYVVGTREGDSEESSALPEGLETSSGGSNERRVEARVIYGDTDSVFVRFRGLTPQALVARGPSLAHYVTACLFVEPVKLEFEKVFVSLMMICKKRYIGKVEGASGLSMKGVDLVRKTACEFVKGVTRDVLSLLFEDREVSEAAVRLSRLSLDEVKKYGVPRGFWRILRRLVQARDDLYLHRVRVEDLVLSSVLSKDISLYRQSNLPHIAVIKRLAARSEELPSVGDRVFYVLTAPGVRTAPQGSSDNGDSVTAGVVSRSDAIDGTDDDADGGGVEESNRRGGEPAKKRARKPPSAVCNYEVAEDPSYVREHGVPIHADKYFEQVLKAVTNVLSPVFPGGETARKDKFLHMVLPRRLHLEPAFLPYSVKAHECC
notes: also called GAD-UL54; source: yeast two-hybrid fusion (S. cerevisiae L40)

Columns and labels:
Experiment in all cases: two-hybrid
[1] = target: T1, HCMV UL44 (DNA polymerase processivity factor), full-length, yeast two-hybrid fusion (human cytomegalovirus (HCMV)), P16790; settings: remark: other sources report otherwise
T1 chain: B1 chain

[2] = target: T2, human Ubc9 (SUMO-conjugating enzyme E2), yeast two-hybrid fusion (human, UniProt P63279 1-158); settings: partners not purified
T2 construct: also called GAD-Ubc9; LexA-Ubc9

[3] = target: B2; settings: partners not purified

T2 sequence (P63279 whole entry, the tested form may be a part): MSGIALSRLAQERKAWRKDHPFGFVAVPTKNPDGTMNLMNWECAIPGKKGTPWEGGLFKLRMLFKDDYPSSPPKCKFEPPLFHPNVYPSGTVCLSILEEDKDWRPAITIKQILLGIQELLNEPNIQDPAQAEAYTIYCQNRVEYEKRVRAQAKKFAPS

B1
β-gal expression [1]: 7640 Units

B2
β-gal expression [2]: 6920 Units

B3
β-gal expression [3]: 8240 Units
